Measurements taken from paper PMC9482650, “Quantitative fragmentomics allow affinity mapping of interactomes” (Nature Communications, 2022).

T1: APBA2_1, Q99767
T1 sequence (Q99767 563-664, limits assumed, looked up): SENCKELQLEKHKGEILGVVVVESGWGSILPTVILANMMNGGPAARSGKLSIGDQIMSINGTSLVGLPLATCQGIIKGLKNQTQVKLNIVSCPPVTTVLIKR

T2: SNTG2, Q9NY99
T2 sequence (Q9NY99 68-166, limits assumed, looked up): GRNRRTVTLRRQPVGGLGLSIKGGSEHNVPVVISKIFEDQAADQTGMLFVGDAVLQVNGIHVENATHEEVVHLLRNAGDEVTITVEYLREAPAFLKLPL

T3: SNTB1, Q13884
T3 sequence (Q13884 107-205, limits assumed, looked up): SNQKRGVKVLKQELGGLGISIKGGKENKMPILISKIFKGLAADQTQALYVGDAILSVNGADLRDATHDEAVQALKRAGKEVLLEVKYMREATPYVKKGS

T4: RHPN1, Q8TCX5
T4 sequence (Q8TCX5 508-602, limits assumed, looked up): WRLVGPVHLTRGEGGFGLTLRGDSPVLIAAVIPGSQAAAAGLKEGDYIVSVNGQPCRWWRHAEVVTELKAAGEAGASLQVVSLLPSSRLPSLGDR

T5: GRIP1_2, Q9Y3R0
T5 sequence (Q9Y3R0 145-248, limits assumed, looked up): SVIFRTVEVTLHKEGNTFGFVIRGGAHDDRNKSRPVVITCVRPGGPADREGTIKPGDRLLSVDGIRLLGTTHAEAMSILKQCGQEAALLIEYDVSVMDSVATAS

T6: MPDZ_12, O75970
T6 sequence (O75970 1857-1958, limits assumed, looked up): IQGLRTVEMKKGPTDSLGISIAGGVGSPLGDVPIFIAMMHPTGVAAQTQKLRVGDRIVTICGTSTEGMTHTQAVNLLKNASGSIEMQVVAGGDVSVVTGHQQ

T7: DFNB31_1, Q9P202
T7 sequence (Q9P202 135-233, limits assumed, looked up): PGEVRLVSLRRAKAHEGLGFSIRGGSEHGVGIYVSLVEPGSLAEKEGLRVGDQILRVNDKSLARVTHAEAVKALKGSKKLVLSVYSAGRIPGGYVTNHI

T8: RADIL, Q96JH8
T8 sequence (Q96JH8 971-1071, limits assumed, looked up): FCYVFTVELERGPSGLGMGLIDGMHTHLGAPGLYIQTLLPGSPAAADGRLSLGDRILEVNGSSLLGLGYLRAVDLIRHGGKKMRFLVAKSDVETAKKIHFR

T9: GRIP1_3, Q9Y3R0
T9 sequence (Q9Y3R0 247-346, limits assumed, looked up): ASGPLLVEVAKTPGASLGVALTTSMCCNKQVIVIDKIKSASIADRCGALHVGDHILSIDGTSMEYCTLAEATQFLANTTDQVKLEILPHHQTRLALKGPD

T10: PDZRN3_1, Q9UPQ7
T10 sequence (Q9UPQ7 244-349, limits assumed, looked up): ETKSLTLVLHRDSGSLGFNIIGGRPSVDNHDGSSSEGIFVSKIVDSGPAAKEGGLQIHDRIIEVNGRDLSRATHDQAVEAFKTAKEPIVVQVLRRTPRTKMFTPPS

T11: LRRC7, Q96NW7
T11 sequence (Q96NW7 1440-1537, limits assumed, looked up): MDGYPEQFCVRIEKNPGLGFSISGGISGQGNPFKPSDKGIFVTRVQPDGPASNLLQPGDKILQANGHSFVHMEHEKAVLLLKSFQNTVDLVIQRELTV

T12: DVL3, Q92997
T12 sequence (Q92997 244-331, limits assumed, looked up): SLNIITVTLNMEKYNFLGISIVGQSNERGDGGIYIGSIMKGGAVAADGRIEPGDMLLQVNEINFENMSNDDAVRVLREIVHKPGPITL


Assays:
Assay in all cases: holdup assay
Parameters in all cases: key: below the threshold = too weak to quantify, mostly under pKd 3.1 to 4
Details in all cases: plain residues with an end cap or a label only (N-terminal biotin on a linker: ado-ado)
APBA2_1, Q99767 = target: T1, APBA2_1, Q99767
SNTG2, Q9NY99 = target: T2, SNTG2, Q9NY99
NHERF4_2, Q86UT5 = target: NHERF4_2, Q86UT5
SNTB1, Q13884 = target: T3, SNTB1, Q13884
RHPN1, Q8TCX5 = target: T4, RHPN1, Q8TCX5
GRIP1_2, Q9Y3R0 = target: T5, GRIP1_2, Q9Y3R0
MPDZ_12, O75970 = target: T6, MPDZ_12, O75970
MAGI2_3, Q86UL8 = target: MAGI2_3, Q86UL8
DFNB31_1, Q9P202 = target: T7, DFNB31_1, Q9P202
DLG2_3, Q15700 = target: DLG2_3, Q15700
ARHGEF12, Q9NZN5-2 = target: ARHGEF12, Q9NZN5-2
SCRIB_1, Q14160 = target: SCRIB_1, Q14160
SCRIB_3, Q14160 = target: SCRIB_3, Q14160
RADIL, Q96JH8 = target: T8, RADIL, Q96JH8
DLG1_2, Q12959 = target: DLG1_2, Q12959
GRIP1_3, Q9Y3R0 = target: T9, GRIP1_3, Q9Y3R0
PARD3_3, Q8TEW0 = target: PARD3_3, Q8TEW0
PDZRN3_1, Q9UPQ7 = target: T10, PDZRN3_1, Q9UPQ7
LRRC7, Q96NW7 = target: T11, LRRC7, Q96NW7
DLG4_3, P78352 = target: DLG4_3, P78352
Inadl_4, Q8NI35 = target: Inadl_4, Q8NI35
MAGI2_5, Q86UL8 = target: MAGI2_5, Q86UL8
Inadl_10, Q8NI35 = target: Inadl_10, Q8NI35
AHNAK1, Q09666 = target: AHNAK1, Q09666
DVL3, Q92997 = target: T12, DVL3, Q92997

Chain of DLG1_2, Q12959 (Q12959 314-412): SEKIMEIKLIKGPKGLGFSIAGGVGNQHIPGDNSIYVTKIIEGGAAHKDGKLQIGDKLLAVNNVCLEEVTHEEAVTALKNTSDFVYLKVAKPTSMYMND
Chain of Inadl_4, Q8NI35 (Q8NI35 547-651): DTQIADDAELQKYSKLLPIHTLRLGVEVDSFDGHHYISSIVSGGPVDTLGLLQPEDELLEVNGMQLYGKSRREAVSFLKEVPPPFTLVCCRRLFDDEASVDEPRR
Chain of AHNAK1, Q09666 (Q09666 4-100): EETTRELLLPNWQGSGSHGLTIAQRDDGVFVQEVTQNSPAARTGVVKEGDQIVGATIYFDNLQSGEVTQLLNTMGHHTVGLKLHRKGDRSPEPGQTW
Chain of DLG4_3, P78352 (P78352 306-403): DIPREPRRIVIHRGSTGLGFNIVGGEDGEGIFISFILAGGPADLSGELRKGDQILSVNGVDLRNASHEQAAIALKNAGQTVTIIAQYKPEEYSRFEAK
Chain of MAGI2_3, Q86UL8 (Q86UL8 600-682): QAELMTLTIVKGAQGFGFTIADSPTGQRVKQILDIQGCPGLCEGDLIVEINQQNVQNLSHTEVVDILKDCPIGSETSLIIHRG
Chain of Inadl_10, Q8NI35 (Q8NI35 1673-1763): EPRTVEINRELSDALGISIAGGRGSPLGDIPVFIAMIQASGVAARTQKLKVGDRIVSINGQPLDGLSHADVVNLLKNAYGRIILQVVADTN
Chain of PARD3_3, Q8TEW0 (Q8TEW0 582-685): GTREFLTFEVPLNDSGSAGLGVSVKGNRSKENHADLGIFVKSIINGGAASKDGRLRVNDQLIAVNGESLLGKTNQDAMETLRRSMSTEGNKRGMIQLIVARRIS
Chain of NHERF4_2, Q86UT5 (Q86UT5 220-308): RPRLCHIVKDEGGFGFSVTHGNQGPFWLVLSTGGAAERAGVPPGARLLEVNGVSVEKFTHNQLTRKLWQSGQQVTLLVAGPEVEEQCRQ
Chain of SCRIB_3, Q14160 (Q14160 999-1103): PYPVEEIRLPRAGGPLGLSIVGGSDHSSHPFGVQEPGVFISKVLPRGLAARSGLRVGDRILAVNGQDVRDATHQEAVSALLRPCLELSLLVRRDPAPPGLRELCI
Chain of ARHGEF12, Q9NZN5-2 (Q9NZN5 other isoform, or with tags, fused parts or gaps): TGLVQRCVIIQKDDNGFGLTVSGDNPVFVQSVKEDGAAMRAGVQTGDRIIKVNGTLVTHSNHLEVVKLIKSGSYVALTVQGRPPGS
Chain of MAGI2_5, Q86UL8 (Q86UL8 915-1017): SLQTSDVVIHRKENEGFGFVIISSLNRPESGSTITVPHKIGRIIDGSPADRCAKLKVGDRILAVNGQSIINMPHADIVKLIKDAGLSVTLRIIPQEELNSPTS
Chain of SCRIB_1, Q14160 (Q14160 718-814): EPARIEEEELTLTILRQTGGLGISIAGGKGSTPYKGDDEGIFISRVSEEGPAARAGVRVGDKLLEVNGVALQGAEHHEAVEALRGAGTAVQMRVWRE

| pKd (APBA2_1, Q99767) | pKd (SNTG2, Q9NY99) | pKd (NHERF4_2, Q86UT5) | pKd (SNTB1, Q13884) | pKd (RHPN1, Q8TCX5) | pKd (GRIP1_2, Q9Y3R0) | pKd (MPDZ_12, O75970) | pKd (MAGI2_3, Q86UL8) | pKd (DFNB31_1, Q9P202) | pKd (DLG2_3, Q15700) | pKd (ARHGEF12, Q9NZN5-2) | pKd (SCRIB_1, Q14160) | pKd (SCRIB_3, Q14160) | pKd (RADIL, Q96JH8) | pKd (DLG1_2, Q12959) | pKd (GRIP1_3, Q9Y3R0) | pKd (PARD3_3, Q8TEW0) | pKd (PDZRN3_1, Q9UPQ7) | pKd (LRRC7, Q96NW7) | pKd (DLG4_3, P78352) | Binder | further results |
| --- | --- | --- | --- | --- | --- | --- | --- | --- | --- | --- | --- | --- | --- | --- | --- | --- | --- | --- | --- | --- | --- |
| below the threshold | 4.15 | below the threshold | 3.82 | 3.97 | below the threshold | below the threshold | below the threshold | 3.65 | below the threshold | 4.84 | 4.21 | 4.11 | below the threshold | 4.27 | below the threshold | below the threshold | 3.79 | below the threshold | below the threshold | WAKEKQHTRL [SLC17A1, Q14916] | pKd (Inadl_4, Q8NI35): below the threshold; pKd (MAGI2_5, Q86UL8): below the threshold; pKd (Inadl_10, Q8NI35): below the threshold; pKd (AHNAK1, Q09666): below the threshold; pKd (DVL3, Q92997): below the threshold |
| below the threshold | below the threshold | below the threshold | below the threshold | 3.8 | below the threshold | 3.55 | below the threshold | below the threshold | 3.98 | 4.91 | 3.63 | 3.52 | 3.97 | 4.23 | below the threshold | below the threshold | below the threshold | below the threshold | 3.74 | YAEKRMLTEV [KCNA6, P17658] | pKd (Inadl_4, Q8NI35): below the threshold; pKd (MAGI2_5, Q86UL8): 4.28; pKd (Inadl_10, Q8NI35): below the threshold; pKd (AHNAK1, Q09666): below the threshold; pKd (DVL3, Q92997): below the threshold |
| below the threshold | below the threshold | below the threshold | 3.69 | 3.78 | below the threshold | below the threshold | below the threshold | below the threshold | below the threshold | 3.54 | below the threshold | below the threshold | 3.62 | 3.99 | below the threshold | below the threshold | below the threshold | below the threshold | below the threshold | GVHSNDHSVV [LPAR1, Q92633] | pKd (Inadl_4, Q8NI35): below the threshold; pKd (MAGI2_5, Q86UL8): below the threshold; pKd (Inadl_10, Q8NI35): below the threshold; pKd (AHNAK1, Q09666): below the threshold; pKd (DVL3, Q92997): below the threshold |
| below the threshold | below the threshold | below the threshold | below the threshold | below the threshold | below the threshold | 3.61 | below the threshold | below the threshold | below the threshold | below the threshold | below the threshold | 3.58 | 5.17 | below the threshold | below the threshold | 3.96 | below the threshold | 3.7 | below the threshold | PALKNGQYWV [CSPG4, Q6UVK1] | pKd (Inadl_4, Q8NI35): below the threshold; pKd (MAGI2_5, Q86UL8): below the threshold; pKd (Inadl_10, Q8NI35): below the threshold; pKd (AHNAK1, Q09666): below the threshold; pKd (DVL3, Q92997): 4.2 |
| below the threshold | 5.05 | below the threshold | 5.57 | 4.35 | below the threshold | below the threshold | below the threshold | 5.02 | below the threshold | 4.03 | 4.95 | 5.27 | below the threshold | 4.74 | below the threshold | 3.51 | 3.69 | 3.48 | below the threshold | DYSNLRETDI [ADRA1D, P25100] | pKd (Inadl_4, Q8NI35): below the threshold; pKd (MAGI2_5, Q86UL8): below the threshold; pKd (Inadl_10, Q8NI35): below the threshold; pKd (AHNAK1, Q09666): below the threshold; pKd (DVL3, Q92997): below the threshold |
| below the threshold | 3.61 | below the threshold | 3.87 | 3.49 | below the threshold | below the threshold | below the threshold | below the threshold | below the threshold | below the threshold | 3.68 | 3.88 | below the threshold | below the threshold | below the threshold | below the threshold | below the threshold | below the threshold | below the threshold | SAGADSETHC [SLCO1B1, Q9Y6L6] | pKd (Inadl_4, Q8NI35): below the threshold; pKd (MAGI2_5, Q86UL8): below the threshold; pKd (Inadl_10, Q8NI35): below the threshold; pKd (AHNAK1, Q09666): below the threshold; pKd (DVL3, Q92997): below the threshold |
